Substrate in this series: O=c1[nH]c(=O)n([C@H]2C[C@H](O)[C@@H](COP(=O)(O)O)O2)cc1/C=C/Br
The series can be described thus: Enzyme kinetics of rHuTS with dUMP and BVdUMP. In kind it is biochemical, human. The note with it: other: rHuTS; 37.0 °C. As for the experimental part: L. Enzyme Preparation. Cloned human thymidylate synthase plasmid pBCHTS was subcloned into E. coli. BL21 (DE3)/pET-28a(+) (Novagen) using the NdeI ñSacI insertion site, in order to add an amino terminal His tag. […] M. Enzyme Assays and Kinetic Measurements. […] Tetrahydrofolate stock solutions were prepared by dissolving tetrahydrofolic acid (Sigma) directly into 0.2 M Tris pH 7.5, 0.5 M-mercaptoethanol; stock solutions were stored at -80° C. […] N5, N10-methylene tetrahydrofolate was kept on ice and used within 2 hours of preparation. […] The catalytic efficiency of the enzyme (Kcat/Km) was calculated from the kinetic constants Km and Vmax.

This is an account of results in patent publication US7419968B1, “Methods for treating therapy-resistant tumors” (Celmed Oncology (USA), Inc., priority 1999, dated 2008).

B1: recombinant human thymidylate synthase (rHuTS) (Homo sapiens) (protein)
chain: MPVAGSELPRRPLPPAAQERDAEPRPPHGELQYLGQIQHILRCGVRKDDRTGTGTLSVFGMQARYSLRDEFPLLTTKRVFWKGVLEELLWFIKGSTNAKELSSKGVKIWDANGSRDFLDSLGFSTREEGDLGPVYGFQWRHFGAEYRDMESDYSGQGVDQLQRVIDTIKTNPDDRRIIMCAWNPRDLPLMALPPCHALCQFYVVNSELSCQLYQRSGDMGLGVPFNIASYALLTYMIAHITGLKPGDFIHTLGDAHIYLNHIEPLKIQLQREPRPFPKLRILRKVEKIDDFKAEDFQIEGYNPHPTIKMEMAV
notes: His tag (N); made in house; host or cells: E. coli BL21 (DE3), pET-28a(+)
Take B1: the Km was 16 μM μM.
